In patent US20060026702A1, “Phosphoinositide 3-kinase mediated inhibition of GPCRs” (DUKE UNIVERSITY, priority 2002, published 2006):

B1: PI3KΔHEAT: HA tagged PI3K mutant with a deletion of the HEAT domain (protein)
chain: MELENYKQPVVLREDNCRRRRRMKPRSAASLSSMELIPIEFVLPTSQRKCKSPETALLHVAGHGNVEQMKAQVWLRALETSVAADFYHRLGPHHFLLLYQKKGQWYEIYDKYQVVQTLDCLRYWKATHRSPGQIHLVQRHPPSEESQAFQRQLTALIGYDVTDVSNVHDDELEFTRRGLVTPRMAEVASRDPKLYAMHPWVTSKPLPEYLWKKIANNCIFIVIHRSTTSQTIKVSPDDTPGAILQSFFTKMAKKKSLMDIPESQSEQDFVLRVCGRDEYLVGETPIKNFQWVRHCLKNGEEIHVVLDTPPDPALDEVRKEEWPLVDDCTGVTGYHEQLTIHGKDHESVFTVSLWDCDRKFRVKIRGIDIPVLPRNTDLTVFVEANIQHGQQVLCQRRTSPKPFTEEVLWNVWLEFSIKIKDLPKGALLNLQIYCGKAPALSSKASAESPSSESKGKVRLLYYVNLLLIDHRFLLRRGEYVLHMWQISGKGEDQGSFNADKLTSATNPDKENSMSISILLDNYCHPIALPKHQPTPDPEGDRGTAMLHDFTQQVQVIEMLQKVTLDIKSLSAEKYDVSSQVISQLKQKLENLQNSQLPESFRVPYDPGLKAGALAIEKCKVMASKKKPLWLEFKCADPTALSNETIGIIFKHGDDLRQDMLILQILRIMESIWETESLDLCLLPYGCISTGDKIGMIEIVKDATTIAKIQQSTVGNTGAFKDEVLNHWLKEKSPTEEKFQAAVERFVYSCAGYCVATFVLGIGDRHNDNIMITETGNLFHIDFGHILGNYKSFLGINKERVPFVLTPDFLFVMGTSGKKTSPHFQKFQDICVKAYLALRHHTNLLIILFSMMLMTGMPQLTSKEDIEYIRDALTVGKNEEDAKKYFLDQIEVCRDKGWTVQFNWFLHLVLGIKQGEKHSAYPYDVPDYA
B2: βARKct: carboxyl terminus of βARK1 that attenuates the Gβγ dependent signaling (protein)
chain: GIKLLDSDQELYRNFPLTISERWQQEVAETVFDTINAETDRLEARKKTKNKQLGHEEDYALGKDCIMHGYMSKMGNPFLTQWQRRYFYLFPNRLEWRGEGEAPQSLLTMEEIQSVEETQIKERKCLLLKIRGGKQFVLQCDSDPELVQWKKELRDAYREAQQLVQRVPKMKNKPRSPVVELSKVPLIQRGSANGL

What was measured:
[1] = biological target: T1, βARK1/PI3K interaction (Bos taurus, UniProt P21146); experiment: βARK1 associated PI3K activity in HEK 293 cells co-transfected with HEAT or PI3KΔHEAT; format: cell-based; settings: 4 μg cDNA co-transfected with βARK1
T1 construct: recognizes both full length βARK1 and the βARKct; expressed in transfected cells; host or cells: HEK 293
T1 sequence (P21146 1-689): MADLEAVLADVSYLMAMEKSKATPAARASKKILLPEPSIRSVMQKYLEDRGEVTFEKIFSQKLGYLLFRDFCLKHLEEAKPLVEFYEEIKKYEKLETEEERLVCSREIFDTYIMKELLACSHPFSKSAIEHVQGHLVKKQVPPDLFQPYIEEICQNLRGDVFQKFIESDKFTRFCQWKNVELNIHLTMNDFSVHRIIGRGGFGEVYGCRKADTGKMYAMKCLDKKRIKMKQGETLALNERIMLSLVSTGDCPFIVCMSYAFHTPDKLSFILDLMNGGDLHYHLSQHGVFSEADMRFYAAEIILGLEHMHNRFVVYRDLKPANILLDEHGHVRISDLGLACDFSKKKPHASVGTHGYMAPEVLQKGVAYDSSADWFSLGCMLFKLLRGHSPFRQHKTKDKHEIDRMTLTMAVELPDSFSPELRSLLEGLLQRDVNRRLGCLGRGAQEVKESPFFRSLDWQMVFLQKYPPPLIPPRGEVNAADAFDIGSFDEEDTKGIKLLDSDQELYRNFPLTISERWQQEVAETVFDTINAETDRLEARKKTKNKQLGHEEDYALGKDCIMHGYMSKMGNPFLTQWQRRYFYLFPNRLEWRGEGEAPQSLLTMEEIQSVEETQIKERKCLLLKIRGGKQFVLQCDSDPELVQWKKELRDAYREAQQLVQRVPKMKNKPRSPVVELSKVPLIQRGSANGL
Description: The present inventors determined that overexpression of the 197 amino acid HEAT domain of PI3K competed for endogenous PI3K binding to βARK1 in living cells. HEK 293 cells were co-transfected with plasmids containing the βARK1 cDNA (2 μg) and increasing concentrations of the HEAT domain cDNA (ranging from 0 to 6 μg). […] The maximal reduction of βARK1 associated PI3K activity occurred when cells were co-transfected with 4 μg of HEAT cDNA (FIG. 9B). Summary results of n=5 experiments. *, p<0.0005. The data was normalized to βARK1 associated PI3K activity in cells transfected with βARK1 only. Furthermore, FLAG tagged HEAT protein co-immunoprecipitated with βARK1 monoclonal antibodies in the co-transfected HEK 293 cells.
The absence of the HEAT domain in an otherwise intact PI3K molecule affected the association of βARK1 with endogenous PI3K in cells. HEK 293 cells were co-transfected with plasmids containing cDNAs for βARK1 (2 μg), βARK1 plus HEAT (4 μg), and βARK1 plus PI3KΔHEAT (4 μg). Cell lysates were immunoprecipitated with a βARK1 monoclonal antibody and assayed for the associated PI3K activity. Expression of PI3KΔHEAT had no effect on the endogenous βARK1/PI3K interaction, whereas overexpression of HEAT abolished this interaction (FIGS. 9C and 9D). […] The data was normalized to βARK1 associated PI3K activity in cells transfected with βARK1 only.
Cytosolic and membrane fractions were prepared and analyzed for βARK1 associated PI3K activity. […] Membrane fractions were prepared from the HEK293 cells co-transfected with the βARK1 (2 μg), βARK1 and HEAT domain (4 μg) containing plasmids.

[2] = Catalytic (lipid kinase) activity of PI3K mutant; format: biochemical; settings: compared with wild type PI3K
Description: PI3KΔHEAT was constructed using 2 PCR reactions that selectively amplified regions of PI3K upstream and downstream from the HEAT domain (FIG. 8a). The region of PI3K upstream from HEAT was amplified using the forward primer (5′-[…]-3′) containing a BamHI site and Kozak consensus sequence, and the reverse primer (5′-[…]-3′) containing a SacI site. The region of PI3K downstream of the HEAT domain was amplified using the forward primer (5′-[…]-3′) containing a SacI site and the reverse primer (5′-[…]-3′) containing a BamHI site and a consensus stop codon. The upstream and downstream regions of PI3K were separately subcloned in the zero-blunt TOPO vector and sequence was verified by dideoxy sequencing. Following digestion with the restriction enzymes BamHI/SacI, a three fragment ligation was carried with the mammalian expression vector pRK5, to generate the plasmid containing the PI3KΔHEAT cDNA (FIG. 8a). […] The plasmids containing cDNAs encoding βARK1, FLAG-β2AR, HA-β2AR and p110γ have been described previously.

[3] = biological target: T2, βARK1 (Bos taurus, UniProt P21146); experiment: Co-immunoprecipitation and GST pull-down with purified βARK1; format: binding; settings: immunoprecipitated FLAG-HEAT or PI3KΔHEAT-HA
T2 construct: gift from Dr. Robert Lefkowitz
T2 sequence (P21146 1-689): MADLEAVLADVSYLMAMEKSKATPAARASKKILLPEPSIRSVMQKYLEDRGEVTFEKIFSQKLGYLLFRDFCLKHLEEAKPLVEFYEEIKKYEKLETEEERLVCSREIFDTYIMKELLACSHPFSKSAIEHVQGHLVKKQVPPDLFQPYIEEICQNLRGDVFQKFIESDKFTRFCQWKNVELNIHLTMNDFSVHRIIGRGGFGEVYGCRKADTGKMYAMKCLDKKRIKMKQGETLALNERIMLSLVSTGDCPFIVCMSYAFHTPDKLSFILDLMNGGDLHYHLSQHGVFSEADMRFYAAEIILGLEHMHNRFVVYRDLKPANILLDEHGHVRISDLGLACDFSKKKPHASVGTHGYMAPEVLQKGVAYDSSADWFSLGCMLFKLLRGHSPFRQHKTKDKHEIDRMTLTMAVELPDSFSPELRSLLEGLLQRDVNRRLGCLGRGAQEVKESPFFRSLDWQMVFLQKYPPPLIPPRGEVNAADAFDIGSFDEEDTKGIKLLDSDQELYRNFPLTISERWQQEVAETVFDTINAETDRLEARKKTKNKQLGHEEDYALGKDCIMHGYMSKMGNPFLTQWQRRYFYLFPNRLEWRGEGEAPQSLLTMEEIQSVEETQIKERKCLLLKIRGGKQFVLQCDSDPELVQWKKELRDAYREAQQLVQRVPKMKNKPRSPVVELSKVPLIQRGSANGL
Description: GST Fusion Protein Expression and Pull-down Experiments—Plasmid DNAs were transformed in Escherichia coli BL21 cells. Overnight cultures were grown in LB medium supplemented with ampicillin (100 μg/ml), diluted to an A600 of 0.2 in the same medium and grown for another 1 hr at 37° C. Cultured cells were then induced with 0.1 mM isopropyl-1-thio-β-D-galactopyranoside for 2 hr. Cell were then pelleted, washed once with 1× phosphate-buffered saline and resuspended in 1× phosphate-buffered saline containing 1 mM phenylmethylsulfonyl fluoride, 2 mg/ml lysozyme and incubated for 15 min on ice. Cells were lysed by adding Triton X-100 1%. Solublized cells were incubated with DNase (300 units) for 15 min on ice and centrifuged at 13,000 rpm for 10 min.
Glutathione-Sepharose beads were added to the supernatant and gently agitated at 4° C. for 2 hr. Beads were washed three times with ice cold 1×PBS containing 1% Triton X-100 followed by three washes with cold PBS without detergent. Protein concentration was determined using a DC protein assay kit (Bio Rad), and the integrity of the fusion protein was analyzed by SDS-polyacrylamide gel electrophoresis and Coomassie staining.
The beads were spun and washed three times with binding buffer followed by three washes with binding buffer without detergent. The beads were resuspended in SDS gel loading buffer and resolved by gel electrophoresis, immunblotting and detection was carried out described later.
FLAG-HEAT and PI3KΔHEAT proteins were immunoprecipitated from cell extracts using monoclonal FLAG and HA antibodies respectively, fractionated by SDS-PAGE and analyzed by immunoblotting with βARK1 monoclonal antibody. […] Levels of expression of HEAT and PI3KΔHEAT proteins were similar (FIG. 8B, lower panel).
To investigate whether there was a direct physical interaction between the HEAT domain of PI3K and βARK1, GST-HEAT fusion protein containing 535-732 amino acid residues of PI3Kγ was produced, which including the entire HEAT domain and flanking upstream 10 amino acids and downstream 7 amino acids. […]

[4] = biological target: T3, PI3K (Homo sapiens, UniProt P48736); experiment: βARK1 associated PI3K activity (lipid kinase assay) in transfected NIH-3T3 cells; format: cell-based, Mouse; settings: co-transfected βARKct cDNA; isoproterenol 2 min
T3 construct: expressed in transfected cells; host or cells: NIH-3T3
Description: (§1) Cell Culture—Mouse NIH-3T3 and HEK293 cells were maintained in either Iscoves modified Dulbecco's medium or minimal essential medium (MEM) supplemented with 10% fetal bovine serum and 1:100 penicillin-streptomycin (10,000 U/ml) at 37° C. Cells were seeded at a density of ˜1-3×10^5 cells/35 mm^2 dish and at 70-80% confluence were transiently transfected using the transfection reagent FUGENE6 (ROCHE) or calcium phosphate precipitation. Cells were harvested 24 hours after transfection, re-plated in triplicate, allowed to grow overnight and serum starved for 2-4 hours before agonist stimulation.
(§2) Cytosolic and Membrane Fractionation—Cell monolayers were scraped in 1 ml of buffer containing 25 mM Tris-HCl (pH 7.5), 5 mM EDTA, 5 mM EGTA, 1 mM phenylmethylsulfonyl fluoride, 2 μg/ml each of leupeptin and aprotinin and disrupted further by using Dounce homogenizer. Intact cells and nuclei were removed by-centrifugation at 1,000×g for 5 min. The collected supernatant was further subject to a centrifugation at 38,000×g for 25 min. The pellet was resuspended in lysis buffer (1% Nonidet P-40, 10% glycerol, 137 mM NaCl, 20 mM Tris-Cl (ph 7.4), 1 mM phenylmethylsulfonyl fluoride, 20 mM NaF, 1 mM sodium pyrophosphate, 1 mM sodium orthovanadate and 2 μg/ml each of aprotinin and leupeptin) and used as membrane fraction and the supernatant was diluted in lysis buffer and used as the cytosolic fraction.
(§3) Lipid Kinase Assays—Cells were lysed in lysis buffer and 2 mg cytosolic extract was used for immunoprecipitation with either the C5/1 monoclonal antibody directed against βARK1, the anti-FLAG M2 monoclonal antibody (Sigma) or antibodies to p110γ, or p110β (Santa Cruz Biotechnology) and protein G-agarose. Sedimented beads were then washed once with 1 ml of lysis buffer, thrice with 1 ml of phosphate-buffered saline (1× phosphate-buffered saline, 1% NP-40 and 100 μM sodium orthovanadate), thrice with 1 ml of Tris/LiCl (100 mM Tris-HCl (pH 7.4), 5 mM LiCl and 100 μM sodium orthovanadate) and twice with TNE (10 mM Tris Cl (pH 7.4), 150 mM NaCl, 5 mM EDTA and 100 μM sodium orthovanadate). Samples were then resuspended in 50 ml of TNE and 10 μl of 100 mM MgCl2 was added to each sample. The substrate, phosphatidylinositol (PI, Avanti), was prepared by drying 50 μl of the 10 mg/ml stock (PI in chloroform) in an eppendorf tube with a stream of air and adding 250 μl of TE (10 mM Tris Cl (pH 7.4) and 1 mM EDTA). The PI was then suspended by sonication in an ice bath for 3 minutes. 10 p, of the PI solution and 11 μl of ATP solution (440 μM cold ATP and 1 μCi/μl of [γ-32P]ATP) were added to each sample. […] Autoradiography of dried plates was used to detect signals, and PIP was quantified by phosphorimaging. […] Values are expressed as fold increase/decrease relative to wild-type/control.

[5] = biological target: T4, PI3K (Homo sapiens, UniProt P48736, DEL30-30/Q459R); experiment: as above; format: cell-based, Mouse; settings: co-transfected βARKct cDNA
T4 construct: expressed in transfected cells; host or cells: NIH-3T3
T4 sequence (P48736 with tags, fused parts or gaps DEL30-30/Q459R): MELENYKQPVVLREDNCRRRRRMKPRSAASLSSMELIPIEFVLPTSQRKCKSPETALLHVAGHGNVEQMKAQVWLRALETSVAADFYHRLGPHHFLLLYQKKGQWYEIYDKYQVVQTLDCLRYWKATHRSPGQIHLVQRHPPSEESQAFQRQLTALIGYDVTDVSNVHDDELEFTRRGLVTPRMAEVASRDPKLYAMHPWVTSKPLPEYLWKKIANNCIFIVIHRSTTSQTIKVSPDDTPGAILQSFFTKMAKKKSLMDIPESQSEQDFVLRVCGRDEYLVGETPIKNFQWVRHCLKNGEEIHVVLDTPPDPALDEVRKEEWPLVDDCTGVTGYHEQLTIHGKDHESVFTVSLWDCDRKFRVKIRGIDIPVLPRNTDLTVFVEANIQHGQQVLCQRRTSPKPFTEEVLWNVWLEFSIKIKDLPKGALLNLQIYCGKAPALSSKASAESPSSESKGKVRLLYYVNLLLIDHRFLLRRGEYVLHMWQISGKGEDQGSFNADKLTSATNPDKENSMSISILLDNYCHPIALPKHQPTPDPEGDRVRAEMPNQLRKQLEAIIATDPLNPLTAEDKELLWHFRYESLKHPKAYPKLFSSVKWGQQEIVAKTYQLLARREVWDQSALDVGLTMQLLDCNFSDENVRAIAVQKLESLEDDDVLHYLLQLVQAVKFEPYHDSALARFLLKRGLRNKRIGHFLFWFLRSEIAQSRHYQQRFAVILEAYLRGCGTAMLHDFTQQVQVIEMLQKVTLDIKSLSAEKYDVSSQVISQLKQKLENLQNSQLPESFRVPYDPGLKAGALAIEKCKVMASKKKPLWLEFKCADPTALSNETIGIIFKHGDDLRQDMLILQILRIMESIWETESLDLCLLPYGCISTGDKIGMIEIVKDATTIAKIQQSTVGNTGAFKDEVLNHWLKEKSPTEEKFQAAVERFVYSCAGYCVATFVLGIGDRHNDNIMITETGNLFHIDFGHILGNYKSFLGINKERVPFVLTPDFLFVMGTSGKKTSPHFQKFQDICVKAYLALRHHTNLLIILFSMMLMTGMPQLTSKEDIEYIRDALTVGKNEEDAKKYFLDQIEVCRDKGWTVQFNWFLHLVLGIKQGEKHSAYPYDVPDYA
Description: as §1, §2, §3

T3 sequence (P48736 with tags, fused parts or gaps DEL30-30/Q459R): as above

Row | Molecule | endogenous βARK1/PI3K interaction [1] | catalytic activity [2] | association with purified βARK1 (immune complexes from HEK 293 extracts) [3] | agonist-dependent translocation of βARK1 associated PI3K activity to the membrane [4] | βARK1 associated PI3K activity in the cytosolic fraction [5]
1 | B1 | no effect | indistinguishable from wild type PI3K | not | – | –
2 | B2 | – | – | – | abolished | loss
